Experiment: yeast display, Sf9 membrane polyspecificity reagent, FACS + sequencing; frameworks hold sequencing errors
Method in brief: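 Nanobodies came from a synthetic yeast display library in Saccharomyces cerevisiae BJ5465, induced with galactose for 36–48 hours and stained for 1 hour at 4 °C with 10% biotinylated, detergent-solubilized Sf9 membrane reagent. Cells were enriched on streptavidin microbeads and then FACS-sorted, with low and high (top ~1%) gates set on anti-HA fluorescence for expression and streptavidin fluorescence for reagent binding. Each polyreactivity label reflects the gate a clone came from. Genes were amplified by colony PCR, sequenced by MiSeq 2 × 250 and filtered by CDR length.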

| Sequence | polyreactivity (PSR sort gate) |
| --- | --- |
| QVQLVESGGGLVQAGGSLRLSCAASGFIFDGNAMGWYRQAPGKERELVAAIRSGGRPTYAPSVKGRFTSSRDNAKNTVDLQMNSLNPEDTAVYYCAARSIYPYYYRRDNRYYYWGQGTQVTVSS | high polyreactivity |
| QVQLVESGGGLVQAGGSLRLSCAASGFIFDGYAMGWYRQAPGKERELVADISSVGSTYYADSVKGRFTISRDNAKNTVYLQMNSLKPEDTAVYYCAAVRFYTYNYWGQGTQVSVSS | low polyreactivity |
| QVQLVESGGGLVQAGGSLRLSCAASGFIFDGYAMGWYSQAPGKERELVAAIDSGGDRTYYADSVKGRFTISRDNAKNTVYLQMNSLKPEDTAVYYCAADSSDPTGYDYWGQGTQVTVSS | low polyreactivity |
| QVQLVESGGGLVQAGGSLRLSCAASGFIFDGYTMGWYRQAPGKERELVAAITTSGTSTYYADSVKGRFTISRDNAKNTVYLQMNSLKPEDTADYYCAARQYRHRVKYYYWGQGTQVTVSS | high polyreactivity |
| QVQLVESGGGLVQAGGSLRLSCAASGFIFDLYAMGWYRQAPGKERELVAAITYSGGSTYYADSVKGRFTISRDNAKNTVYLQMNSLKPEDTAVYYCATVEKFYEYDHWGQGTQVTVSS | low polyreactivity |
| QVQLVESGGGLVQAGGSLRLSCAASGFIFDNYAMGWYRQAPGKERELVAAISRSGGSTYYADSVKGRFTISRDNAKNTVYLQMNSLKPEDTAVYYCAARGKFGIVRYDYWGQGTQVTVSS | high polyreactivity |
| QVQLVESGGGLVQAGGSLRLSCAASGFIFDNYAMGWYRQAPGKERELVAAISRSGGSTYYADSVKGRFTISRDNAKNTVYLQMNSLKPEDTAVYYCATSGPRGWSLHDYWGQGTQVTVSS | high polyreactivity |
| QVQLVESGGGLVQAGGSLRLSCAASGFIFDRNAMGWYRQAPGKEREFVAAITRRGGTTYYADSVKGRFTISRDNAKNTVYLQMNSLKPEDTAVYYCAATYLHVYRRRFYYWGQGTQVTVSS | high polyreactivity |
| QVQLVESGGGLVQAGGSLRLSCAASGFIFDSYAMGCYRQAPGKETELVAAISYSGGNTYYADSVKGRFTISRDNAQITVYLQMNSLKPEDTAFYYCAAEWSDSRWWRLWWYGEDDYWGQGTQVTVSS | high polyreactivity |
| QVQLVESGGGLVQAGGSLRLSCAASGFIFDSYAMGWYRQAPGKERELVAAISWSGSSTYYADSVKGRFTISRDNAKNTVYLQMNSLKPEDTAVYYCAALVYPYWGCSMYYWGQGTQVTVSS | high polyreactivity |
| QVQLVESGGGLVQAGGSLRLSCAASGFIFDSYAMGWYRQAPGKERELVAAITTSGGRSYYADSVKGRFTISRDNAKNTVYLQMNSLKPEDTAVYYCAAKYTARWGFDYWGQGTQVTVSS | high polyreactivity |
| QVQLVESGGGLVQAGGSLRLSCAASGFIFDSYAMGWYRQAPGKERELVAAITYSGSSTYYADSVKGRFTISRDNAKNTVYLQMNSLKPEDTAVYYCAAVWRYSHLYGYWGQGTQVTVSS | high polyreactivity |
| QVQLVESGGGLVQAGGSLRLSCAASGFIFDVYAMGWYRQAPGKERELVAAISSSGGRTYYADSVKGRFTISRDNAKNTVYLQMNSLKPEDTAVYYCAAKTHSRTKVYTADYWGQGTQVTVSS | high polyreactivity |
| QVQLVESGGGLVQAGGSLRLSCAASGFIFDVYAMGWYRQAPGKERELVAAITGSGSITYYADSVKGRFTISRDNAKNTVYLQMNSLKPEDTAVYYCAALGPTQDRDYWGQGTQVTVSS | high polyreactivity |
| QVQLVESGGGLVQAGGSLRLSCAASGFIFDYNAMGWYRQAPGKERELVAAISWSGSRTYYAVSVKGRFTISRDNAKNTVYLQMNSLKPEDTAVYYCAAEWSGEAAWQVGAEDDYWGQGTQVTVSS | low polyreactivity |
| QVQLVESGGGLVQAGGSLRLSCAASGFIFDYNVMGWYRQAPGKKGSWVAAISWSGGSTYYADSVKGRFTISRDNAKNTVYLQMNSLKPEDTAVYYCAARGTSTYRGTGRYDYWGQGTQVTVSS | high polyreactivity |
| QVQLVESGGGLVQAGGSLRLSCAASGFIFDYYAMGWYRQAPGKERELVAAITSRGGSTYYADSVKGRFTISRDNAKNTVYLQMNSLKQEDTAVYYCAARRRSAEYNYWGHGTQVTVSS | high polyreactivity |
| QVQLVESGGGLVQAGGSLRLSCAASGFIFEAYAMGWYRQAPGKERELVAAIDSGGSTDYADSVKGRFTISRDNAKNTVYLQMNSLTPEDTAVYYCIAERAYLLWYNFDYWGQGTKVTVSS | low polyreactivity |
| QVQLVESGGGLVQAGGSLRLSCAASGFIFEGYAMGWYRQAPGKERELVAAINWSGTTTYYADSVKGRFTISRDNAKNTVYLQMNSLKPEDTAVYYCNARYYVLRGYDYWGQGTQVTVSS | low polyreactivity |
| QVQLVESGGGLVQAGGSLRLSCAASGFIFEPYAMGWYRQAPGKERELVAAISSGGSTYADSVKGRFTISRDNAKNTVYLQMISLKPEDTAVYYCAADSYYSVWGFYYWGQGTQVTVSS | low polyreactivity |
| QVQLVESGGGLVQAGGSLRLSCAASGFIFERNAMGWYRQAPGKERELVAGISNNGGSTYYADSVKGRFTISRDNAKNTVYLQMNSLKPEDTAVYYCARDPNDDNSFPYDYWGQGTQVTVSS | low polyreactivity |
| QVQLVESGGGLVQAGGSLRLSCAASGFIFETYAMGWYRQEPGKERELVAAISRGASTYYADSVKGRFTISRDNAKNTVYLQMNSLKPEDTAVYYCAAKRLSWHRYGYWGQGTQVTVSS | low polyreactivity |
| QVQLVESGGGLVQAGGSLRLSCAASGFIFEWNAMGWYRQAPGKERELVASITFGGGNTYYADSVKGRFTISRDNAKNTVYLQMNSLKPEDTAVYYCAADDGVTYRGIIFSYLGQGTQVTVSS | low polyreactivity |
| QVQLVESGGGLVQAGGSLRLSCAASGFIFEWYDMGWYRQAPGKERELVASISWSGGSTYYADSVKGRFTISRDNAKNTVYLQMNSLKPEDTAVYYCNTPSYTYWHWYDYWGQGTQVTVSS | high polyreactivity |
| QVQLVESGGGLVQAGGSLRLSCAASGFIFFEYAMGWYRQAPGKERELVAAISWSDDTTYYADSVKGRFTISRDNAKNTVYLQMNSLNPEDTAVYYCNVRYWGFYDYDYWGQGSQVTVSS | low polyreactivity |
| QVQLVESGGGLVQAGGSLRLSCAASGFIFFINDMGWYRQAPGTERELVAAISWSGGSTYYADSVKGRFTISRDNAKNTVYLQMNSLKPEDTAVYYCNTDVPTAQYDYWGQGTQVTVSS | low polyreactivity |
| QVQLVESGGGLVQAGGSLRLSCAASGFIFGANAMGWYRQAPGKERELVADINRGSTYYADSVKGRFTISRDNAKNTVYLQMNSLKPEDTAVYYCNRVYTQTFNPWGFEYWGQGTQVTVSS | high polyreactivity |
| QVQLVESGGGLVQAGGSLRLSCAASGFIFGDYAMGWYRQAPGKERELVADINWTGGSTYYADSVKGRFTISRDNAKNTVYLQMNSLKPEDTAVYYCAKDDYAFLITWVDYWGQGTQVTVSS | low polyreactivity |
| QVQLVESGGGLVQAGGSLRLSCAASGFIFGGDPMGWYRQARGSDRELVAAISSSGGRTYYADSVKRRFTISRDNAKNNVYLQLNSLKPEDTAVYSCAVPRFGSAAKRYYYWGQGTQVTVTS | high polyreactivity |
| QVQLVESGGGLVQAGGSLRLSCAASGFIFGGYAMGWYRQAPGKEREFVAAIRQRGGSTYYADSVKGRFTISRDNAKNTVYLQMNSLKPEDTAVYYCAATVRAVQASVRYGYWGQGTQVTVSS | high polyreactivity |
